Results: paper PMC8165985

Biological target: T1, YycF (Staphylococcus aureus (ATCC29213?)) (UniProt Q9RDT5)
T1 sequence: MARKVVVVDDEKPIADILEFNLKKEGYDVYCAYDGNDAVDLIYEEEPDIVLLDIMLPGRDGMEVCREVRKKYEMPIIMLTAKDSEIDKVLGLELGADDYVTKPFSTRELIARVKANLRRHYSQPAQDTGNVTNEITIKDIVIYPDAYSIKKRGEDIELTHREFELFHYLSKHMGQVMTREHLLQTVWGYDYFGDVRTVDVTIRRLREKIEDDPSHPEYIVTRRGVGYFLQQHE
Experiment: EMSA

Row | Sequence | binding
1 | CTGAAAATTAATCACACTATGTTACAGGAAAATTAAGTTGCAATTACAAATATTTCCGTTTAATTATAACAACAATCTATTGCAAATTAAAATACTATCAATTACCATATGGCTTACAACCTAACTAACGAAAGGTAGGTAAAG (double strand) [icaA promoter region] | binds
2 | GCGCAATTTGGTGAAGTTTGATAGATGATACATTCTATTAAACTTCCTTTTTTTATGTCTTTTTTTACCTAATTGTTAAGAGGTTTTGCACTAATGGCACTTAATATAAGGAAGATAGCCGCATAACGAGCAGTATATATCAAATACATTTCAAAAAAAGCTGATTTCTATCAAATAATGAATAGTAATCAGCTTTTTCACATTGCCTAAGGACTTTATGCCCTAGGTTTATATATCAC (double strand) [sarA promoter region] | binds
